Measurements published in the supplement of paper PMC7125110.
± gives the standard error. For some assays here: Variants at the floor of the assay were thinned out.

B1: glmS ribozyme (parent)
chain: AUAAAAGCGCCAGAACUACAGAAAUGUAGUUGACGAGGAGGAGGUUUAUCGAAUUUUCGGCGGAUGCCUCCAAA

What was measured:
Conditions in all cases: with glucosamine-6-phosphate
glucosamine-6-phosphate [1] = variants of: B1; test: kcat; higher = faster cleavage; RNA array
In short: (§1)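 Glucosamine-6-phosphate, from 40 μM to 10 mM in HEPES/KCl/Mg(OAc)2 buffer, was flowed over sequenced MiSeq chips carrying barcoded ribozyme variants transcribed in situ by E. coli RNA polymerase. A hybridised Cy3 probe tracked the variants at 37 °C as tiles were imaged over ~14 h. kobs, kcat and KM were obtained by fitting normalised per-tile medians to exponential decays and then applying weighted Michaelis–Menten fits across concentrations.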

glucosamine-6-phosphate [2] = variants of: B1; test: KM; higher = weaker cofactor use; RNA array
In short: as §1

glucosamine-6-phosphate [3] = variants of: B1; test: self-cleavage kobs at 40 uM GlcN6P; higher = faster cleavage; RNA array
In short: as §1

glucosamine-6-phosphate [4] = variants of: B1; test: self-cleavage kobs at 160 uM GlcN6P; higher = faster cleavage; RNA array
In short: as §1

glucosamine-6-phosphate [5] = variants of: B1; test: self-cleavage kobs at 640 uM GlcN6P; higher = faster cleavage; RNA array
In short: as §1

glucosamine-6-phosphate [6] = variants of: B1; test: self-cleavage kobs at 2500 uM GlcN6P; higher = faster cleavage; RNA array
In short: as §1

glucosamine-6-phosphate [7] = variants of: B1; test: self-cleavage kobs at 10000 uM GlcN6P; higher = faster cleavage; RNA array
In short: as §1

Variant	kcat (glucosamine-6-phosphate [1])	KM (glucosamine-6-phosphate [2])	self-cleavage kobs at 40 uM GlcN6P (glucosamine-6-phosphate [3])	self-cleavage kobs at 160 uM GlcN6P (glucosamine-6-phosphate [4])	self-cleavage kobs at 640 uM GlcN6P (glucosamine-6-phosphate [5])	self-cleavage kobs at 2500 uM GlcN6P (glucosamine-6-phosphate [6])	self-cleavage kobs at 10000 uM GlcN6P (glucosamine-6-phosphate [7])
G40U A53U	0.00278 ± 0.00064 s⁻¹	1300 ± 390 µM	0.000101 ± 8.3e-06 s⁻¹	0.000254 ± 3.2e-05 s⁻¹	0.000821 ± 9.1e-05 s⁻¹	0.00203 ± 0.00093 s⁻¹	0.00266 ± 0.00031 s⁻¹
A39G U55C	0.0858 ± 0.023 s⁻¹	3000 ± 920 µM	0.00123 ± 0.00015 s⁻¹	0.00406 ± 0.0011 s⁻¹	0.0122 ± 0.0029 s⁻¹	–	0.0709 ± 0.018 s⁻¹
G40U U45G	0.0012 ± 0.00018 s⁻¹	724 ± 190 µM	7.67e-05 ± 2e-05 s⁻¹	0.000202 ± 3.6e-05 s⁻¹	0.000582 ± 8.9e-05 s⁻¹	0.000779 ± 0.00017 s⁻¹	0.00134 ± 0.00027 s⁻¹
A39U A52G	0.00113 ± 0.00012 s⁻¹	4750 ± 800 µM	–	5.2e-05 ± 1.4e-05 s⁻¹	0.000134 ± 1.3e-05 s⁻¹	0.000345 ± 5.5e-05 s⁻¹	0.00078 ± 5.8e-05 s⁻¹
A39U U55A	0.0539 ± 0.0098 s⁻¹	5710 ± 1200 µM	0.000396 ± 9.4e-05 s⁻¹	0.00146 ± 0.00024 s⁻¹	0.00564 ± 0.001 s⁻¹	0.0142 ± 0.0033 s⁻¹	0.0376 ± 0.0091 s⁻¹
G41C C70U	0.000551 ± 0.00016 s⁻¹	–	4.81e-05 ± 7.7e-06 s⁻¹	9.61e-05 ± 2.4e-05 s⁻¹	0.000173 ± 2.2e-05 s⁻¹	0.000498 ± 6.2e-05 s⁻¹	0.000516 ± 5.8e-05 s⁻¹
A39U A53U	0.0113 ± 0.0033 s⁻¹	1260 ± 530 µM	0.000461 ± 5e-05 s⁻¹	0.000985 ± 0.00016 s⁻¹	0.00368 ± 0.00054 s⁻¹	0.00619 ± 0.001 s⁻¹	0.0126 ± 0.0017 s⁻¹
G40C A52U	8.17e-05 ± 1.4e-05 s⁻¹	–	–	–	–	7.08e-05 ± 9.7e-06 s⁻¹	7.15e-05 ± 8.3e-06 s⁻¹
G40C A52G	0.00018 ± 3.1e-05 s⁻¹	2990 ± 1200 µM	–	–	2.38e-05 ± 8.1e-06 s⁻¹	0.000102 ± 1.5e-05 s⁻¹	0.000133 ± 1.5e-05 s⁻¹
A39U A48U	0.000306 ± 1.3e-05 s⁻¹	1710 ± 170 µM	–	–	8.14e-05 ± 9.1e-06 s⁻¹	0.000201 ± 2.9e-05 s⁻¹	0.000257 ± 2.2e-05 s⁻¹
A39U A48G	0.000105 ± 2.3e-05 s⁻¹	–	< 1e-05 s⁻¹	< 1e-05 s⁻¹	–	6.61e-05 ± 1.5e-05 s⁻¹	8.13e-05 ± 1.5e-05 s⁻¹
G40A G59U	1.46e-05 ± 2.7e-06 s⁻¹	–	< 1e-05 s⁻¹	< 1e-05 s⁻¹	–	–	–
A39G A53U	0.0202 ± 0.0043 s⁻¹	805 ± 260 µM	0.00108 ± 0.00016 s⁻¹	0.00271 ± 0.00057 s⁻¹	0.0101 ± 0.0016 s⁻¹	0.0119 ± 0.0027 s⁻¹	0.0229 ± 0.0041 s⁻¹
A39U U57A	0.0002 ± 1.2e-05 s⁻¹	4780 ± 530 µM	–	–	2.12e-05 ± 7.4e-06 s⁻¹	7.13e-05 ± 1e-05 s⁻¹	0.000134 ± 1.5e-05 s⁻¹
A39G U45G	0.0109 ± 0.0044 s⁻¹	–	0.00047 ± 6.3e-05 s⁻¹	0.00207 ± 0.00047 s⁻¹	0.00416 ± 0.00099 s⁻¹	0.00467 ± 0.0013 s⁻¹	0.0173 ± 0.0023 s⁻¹
A39U U47G	0.00519 ± 0.00052 s⁻¹	1940 ± 270 µM	0.000119 ± 1.7e-05 s⁻¹	0.000358 ± 4.8e-05 s⁻¹	0.00132 ± 0.00018 s⁻¹	0.00285 ± 0.00052 s⁻¹	0.00439 ± 0.00057 s⁻¹
A39U U47A	0.0219 ± 0.0045 s⁻¹	3320 ± 900 µM	0.000309 ± 3.8e-05 s⁻¹	0.000791 ± 0.00013 s⁻¹	0.00397 ± 0.00055 s⁻¹	0.00871 ± 0.0017 s⁻¹	0.0166 ± 0.002 s⁻¹
A39C A52G	0.000297 ± 5.1e-05 s⁻¹	2850 ± 940 µM	–	–	4.74e-05 ± 8.3e-06 s⁻¹	0.00017 ± 2.1e-05 s⁻¹	0.000217 ± 2.6e-05 s⁻¹
A39G U56C	0.00799 ± 0.002 s⁻¹	3240 ± 1100 µM	0.000109 ± 1.2e-05 s⁻¹	0.000656 ± 0.00018 s⁻¹	0.00106 ± 0.00014 s⁻¹	0.0039 ± 0.00058 s⁻¹	0.00611 ± 0.00076 s⁻¹
A39U A42U U55G G66U	0.000223 ± 7.5e-06 s⁻¹	1100 ± 96 µM	–	–	8.2e-05 ± 2.5e-05 s⁻¹	0.000166 ± 5.4e-05 s⁻¹	0.000198 ± 3.5e-05 s⁻¹
G41A C70G	0.000368 ± 0.00014 s⁻¹	–	4.43e-05 ± 8e-06 s⁻¹	6.45e-05 ± 1.1e-05 s⁻¹	0.000156 ± 1.6e-05 s⁻¹	0.000332 ± 4e-05 s⁻¹	–
A39C U46C U56C	0.000367 ± 3.7e-05 s⁻¹	2880 ± 510 µM	–	–	6.45e-05 ± 1.5e-05 s⁻¹	0.000196 ± 5.6e-05 s⁻¹	0.000277 ± 5.9e-05 s⁻¹
A39G C50A	3.27e-05 ± 5.7e-06 s⁻¹	–	–	–	–	–	–
G40A A64G	0.00353 ± 0.0011 s⁻¹	3100 ± 1400 µM	7.68e-05 ± 1.3e-05 s⁻¹	0.000131 ± 3.3e-05 s⁻¹	0.000538 ± 9e-05 s⁻¹	0.00188 ± 0.00029 s⁻¹	0.00259 ± 0.00038 s⁻¹
G41A A42G	0.000223 ± 4.2e-05 s⁻¹	–	–	–	8.45e-05 ± 1.3e-05 s⁻¹	0.000296 ± 4.3e-05 s⁻¹	0.000192 ± 1.8e-05 s⁻¹
G40U C58A	0.000609 ± 4.4e-05 s⁻¹	–	< 1e-05 s⁻¹	< 1e-05 s⁻¹	–	–	3.81e-05 ± 9.5e-06 s⁻¹
G40A A48G	4.48e-05 ± 1.1e-05 s⁻¹	–	< 1e-05 s⁻¹	–	–	4.6e-05 ± 7.9e-06 s⁻¹	3.71e-05 ± 7.6e-06 s⁻¹
A39C C58A	0.000217 ± 9.9e-05 s⁻¹	–	< 1e-05 s⁻¹	–	–	–	5.19e-05 ± 9.6e-06 s⁻¹
